In patent US20180022815A1:

Biological target: BCMA and CD138 on H929 cells
Assay: flow cytometry on H929 cells, sheep antihuman Ig-FITC secondary

percent of H929 cells stained ("efficiency"): 84.8%
B1: bi-specific CD138/BCMA-IgG (dual CD138 scFv - 218S linker - BCMA scFv fused with a human IgG Fc) (bispecific antibody, not shown: a dimerising Fc or GST)
chain: DIQMTQSTSSLSASLGDRVTISCSASQGINNYLNWYQQKPDGTVELLIYYTSTLQSGVPSRFSGSGSGTDYSLTISNLEPEDIGTYYCQQYSKLPRTFGGGTKLEIKGSTSGSGKPGSSEGSTKGQVQLQQSGSELMMPGASVKISCKATGYTFSNYWIEWVKQRPGHGLEWIGEILPGTGRTIYNEKFKGKATFTADISSNTVQMQLSSLTSEDSAVYYCARRDYYGNFYYAMDYWGQGTSVTVSSGSTSGSGKPGSSEGSTKDIVLTQSPASLAVSLGDRATINCRASESVSVIGAHLIHWYQQKPGQPPKLLIYLASNLETGVPARFSGSGSGTDFTLTISSLQAEDAAIYYCLQSRIFPRTFGQGTKLEIKGSTSGSGKPGSSEGSTKGQVQLVQSGSELKKPGASVKVSCKASGYTFTDYSIQWVRQAPGQGLEWMGWIQTETREPAYAYDFRGRFVFSLDTSVSTAYLQISSLKAEDTAVYYCALDYSYAMDYWGQGTLVTVSS
